Assay results reported in patent publication US20260153518A1, “DIAGNOSIS OF IMMUNE-MEDIATED INFLAMMATORY DISEASES USING MMP12 AS INDICATOR, AND MEDICINE FOR TREATING IMMUNE-MEDIATED INFLAMMATORY DISEASES VIA MMP12 INHIBITION” (KEIO UNIVERSITY, priority 2022, published 2026).
Where no end group is shown, it is not given here.

Assays:
h MMP12 = h MMP12 (Homo sapiens, UniProt P39900); assay: Evaluation of cleavage of candidate peptides by MMP12 (UPLC); assay type: biochemical; conditions: for Number of cleavage peaks, Test: UPLC after incubation with h MMP12, 37° C.; for Number of cleavage peaks, Test / Cleavage rate (%) of each candidate peptide by MMP12: 16 hours; for Cleavage rate (%) of each candidate peptide by MMP12: activated h MMP12 2.0 ng/μL mixed 1:1 with 40 μM peptide, 37° C., UPLC peak area before/after, 440 nm; for cleavage rate by MMP12 (in words: low / medium / high) / cleavage site by MMP12: summary of Table 3
Chain of h MMP12 (P39900 106-470): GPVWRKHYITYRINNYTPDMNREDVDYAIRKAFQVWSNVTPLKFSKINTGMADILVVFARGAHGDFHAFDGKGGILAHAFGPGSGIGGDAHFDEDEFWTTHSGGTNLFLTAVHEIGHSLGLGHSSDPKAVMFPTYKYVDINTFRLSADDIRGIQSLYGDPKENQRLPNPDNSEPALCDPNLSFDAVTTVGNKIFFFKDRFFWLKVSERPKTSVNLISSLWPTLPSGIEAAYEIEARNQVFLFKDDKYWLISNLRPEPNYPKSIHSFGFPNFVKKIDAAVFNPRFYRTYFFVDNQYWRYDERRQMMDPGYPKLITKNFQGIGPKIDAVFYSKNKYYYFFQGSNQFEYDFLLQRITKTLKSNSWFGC
Description: The evaluation of cleavage of candidate peptides by MMP12 was performed as follows.
On the first day, h MMP12 was diluted to 50 μg/mL with an assay buffer. APMA was added to the h MMP12 solution to adjust the final concentration of APMA to 1 mM, and the solution was incubated at 37° C. for 24 hours to activate h MMP12.
On the second day, activated h MMP12 was diluted to 2 ng/μL (=40 nM) with an assay buffer The substrate (peptide) was diluted to 40 μM with an assay buffer. 50 μL of h MMP12 (2.0 ng/μL) and 50 μL of the substrate (peptide) were mixed and incubated at 37° C. for 16 hours. A blank was prepared by mixing equal volumes of an assay buffer and the substrate (peptide).
On the third day, 100 μL of acetonitrile was added to the mixture from the second day. After centrifugation for 10 minutes, the supernatant was collected, and 10 μL of the supernatant was analyzed using ultra high performance liquid chromatography (UPLC).
UPLC was performed under the conditions of measurement wavelength: 440 nm, flow rate: 0.4 mL/min, A: H2O with 0.1% TFA, B: CH3CN with 0.1% TFA, and elution conditions 10% B→70% B in 9.5 min, and as a result, it was confirmed that the two positive controls were cleaved by MMP12 (data is not shown).
For the candidate peptide Nos, 2, 4 to 7, 11, 15 to 17, 19, 20, and 22, the evaluation of cleavage by MMP12 was performed in the same manner as for the positive controls. Cleavage by MMP12 was confirmed for all the peptides tested. For Nos. 2 and 4 to 7, the cleavage sites were L-Q and L-R/K, but the cleavage rates were different. […] For Nos. 11, 15, 17, 20, and 22, the cleavage site was E-L, but the cleavage rates were different. The cleavage rate of No. 11 was high and the cleavage rate of No. 15 was low even though these candidate peptides have E-L-l. The cleavage rates of Nos. 17, 20, and 22, which have E-L-R, were high.

[1] = system: SCG/ThpNkc mice (ANCA-associated vasculitis model mice); assay: Therapeutic effects of MMP12 inhibitors on ANCA-associated vasculitis model mice; assay type: in vivo
Description: SCG/ThpNkc mice (see Proc Natl Acad Sci USA. 1993 Apr. 15; 90(8): 3413-7.) are ANCA-associated vasculitis model mice created by crossing and interbreeding two strains, MRL/Ipr and BXSB, and can be supplied from Laboratory Animal Resource Bank at the National Institute of Biomedical Innovation, Health and Nutrition (resource number: nbio133).
In this experiment, MMP408 (CAS No. 1258003-93-8), which is an MMP12 selective inhibitor, was administered to male SCG/ThpNkc mice, and the therapeutic effects of MMP408 were examined.
The SCG/ThpNkc mice were reared in cages with normal solid food and water. At weeks of age, it was confirmed that the mice had positive occult blood in their urine. From 11 weeks of age, MMP408 was administered via the intraperitoneal route at a dose of 100 μg twice a week. Urine analysis was performed at 15 and 20 weeks of age, and the mice were sacrificed at 20 weeks of age. The number of mice in an MMP408 non-administration group and the number of mice in an MMP408 administration group were n=25 and n=4, respectively.

Compound | Number of cleavage peaks, Test (h MMP12) | Cleavage rate (%) of each candidate peptide by MMP12 (h MMP12) [%] | cleavage rate by MMP12 (in words: low / medium / high) (h MMP12) | cleavage site by MMP12 (h MMP12) | urine occult blood ([1]; MMP408 administration group, week 20, FIG. 12 (n=2)) | mice still alive at 20 weeks (survival curve) ([1]; male SCG/ThpNkc mice, MMP408 100 μg intraperitoneal twice a week from 11 weeks of age, n=4, log-rank test p=0.037 vs non-administration group (92% died by 20 weeks))
ASVVTELRSQSLQT (not fully specified; also: 5-carboxyfluorescein label) [No. 20] | 2 | 100.0 | high | E-L | – | –
PAAAVLRELRSVS (not fully specified; also: 5-carboxyfluorescein label) [No. 22] | 3 | 100.0 | high | E-L | – | –
DKVWQDYIKDMKEN [No. 02] | 1 | 56.0 | medium | – | – | –
APIANELRSQSLQT (not fully specified; also: 5-carboxyfluorescein label) [No. 17] | 1 | 98.6 | high | E-L | – | –
SRNLQERLRRKE (not fully specified; also: 5-carboxyfluorescein label) [No. 05] | 1 | 38.5 | medium to high | – | – | –
COC(=O)Nc1ccc2oc3cc(S(=O)(=O)N[C@@H](C(=O)O)C(C)C)ccc3c2c1 [MMP408] | – | – | – | – | improved | 2 out of 4
STNLQESLRRKE (not fully specified; also: 5-carboxyfluorescein label) [No. 07] | 2 | 70.4 | medium to high | – | – | –
SLSFSTNLQKRL (not fully specified; also: 5-carboxyfluorescein label) [No. 04] | 1 | 53.5 | medium | – | – | –
LNVQRKAIHELIQV (not fully specified; also: 5-carboxyfluorescein label) [No. 11] | 2 | 100.0 | high | E-L | – | –
APRIKKIVQKKLAG (not fully specified; also: 5-carboxyfluorescein label) [No. 19] | 1 | 26.0 | – | – | – | –
PESSLRKRKRSR (not fully specified; also: 5-carboxyfluorescein label) [No. 16] | 1 | 61.7 | – | – | – | –
RQAFNEKIRVVHQL (not fully specified; also: 5-carboxyfluorescein label) [No. 15] | 1 | 10.5 | low | E-L | – | –
SFSSSRNLQERL (not fully specified; also: 5-carboxyfluorescein label) [No. 06] | 1 | 90.3 | medium to high | – | – | –
